# B1: Fc-fused soluble cadherin-2 (extracellular domain of CDH2 fused to the Fc fragment of human IgG1) (Fc fusion, UniProt P19022 160-724, looked up)
# chain: DWVIPPINLPENSRGPFPQELVRIRSDRDKNLSLRYSVTGPGADQPPTGIFIINPISGQLSVTKPLDREQIARFHLRAHAVDINGNQVENPIDIVINVIDMNDNRPEFLHQVWNGTVPEGSKPGTYVMTVTAIDADDPNALNGMLRYRIVSQAPSTPSPNMFTINNETGDIITVAAGLDREKVQQYTLIIQATDMEGNPTYGLSNTATAVITVTDVNDNPPEFTAMTFYGEVPENRVDIIVANLTVTDKDQPHTPAWNAVYRISGGDPTGRFAIQTDPNSNDGLVTVVKPIDFETNRMFVLTVAAENQVPLAKGIQHPPQSTATVSVTVIDVNENPYFAPNPKIIRQEEGLHAGTMLTTFTAQDPDRYMQQNIRYTKLSDPANWLKIDPVNGQITTIAVLDRESPNVKNNIYNATFLASDNGIPPMSGTGTLQIYLLDINDNAPQVLPQEAETCETPDPNSINITALDYDIDPNAGPFAFDLPLSPVTIKRNWTITRLNGDFAQLNLKIKFLEAGIYEVPIIITDSGNPPKSNISILRVKVCQCDSNGDCTDVDRIVGAGLGTGA
# notes: extracellular domain; also called Fc-CDH2; not shown: Fc fragment of human IgG1
# B2: Fc-fused soluble cadherin-6 (extracellular domain of CDH6 fused to the Fc fragment of human IgG1) (Fc fusion)
# chain: SWMWNQFFLLEEYTGSDYQYVGKLHSDQDRGDGSLKYILSGDGAGDLFIINENTGDIQATKRLDREEKPVYILRAQAINRRTGRPVEPESEFIIKIHDINDNEPIFTKEVYTATVPEMSDVGTFVVQVTATDADDPTYGNSAKVVYSILQGQPYFSVESETGIIKTALLNMDRENREQYQVVIQAKDMGGQMGGLSGTTTVNITLTDVNDNPPRFPQSTYQFKTPESSPPGTPIGRIKASDADVGENAEIEYSITDGEGLDMFDVITDQETQEGIITVKKLLDFEKKKVYTLKVEASNPYVEPRFLYLGPFKDSATVRIVVEDVDEPPVFSKLAYILQIREDAQINTTIGSVTAQDPDAARNPVKYSVDRHTDMDRIFNIDSGNGSIFTSKLLDRETLLWHNITVIATEINNPKQSSRVPLYIKVLDVNDNAPEFAEFYETFVCEKAKADQLIQTLHAVDKDDPYSGHQFSFSLAPEAASGSNFTIQDNKDNTAGILTRKNGYNRHEMSTYLLPVVISDNDYPVQSSTGTVTVRVCACDHHGNMQSCHAEALIHPTGLSTGA
# notes: also called Fc-CDH6; Fc-fused CDH6; not shown: Fc fragment of human IgG1
# B3: GST-fused GRS fragment F4 (C-terminal anticodon-binding domain, 175 amino acids) (other, not shown: a dimerising Fc or GST; small tags and cut ends)
# chain: LYVEEVVPNVIEPSFGLGRIMYTVFEHTFHVREGDEQRTFFSFPAVVAPFKCSVLPLSQNQEFMPFVKELSEALTRHGVSHKVDDSSGSIGRRYARTDEIGVAFGVTIDFDTVNKTPHTATLRDRDSMRQIRAEISELPSIVQDLANGNITWADVEARYPLFEGQETGKKETIEE
# notes: also called ABD; GST-GRS F4
# Assays:
# [1] = biological target: Fc-fused soluble cadherin-18 (extracellular domain of CDH18 fused to the Fc fragment of human IgG1) (human) (UniProt Q13634); assay: SPR (ProteOn XPR36), Fc-cadherin amine-coupled to GLC chip, GRS as analyte, Langmuir 1:1 model
# [2] = biological target: T1, His-tagged recombinant human glycyl-tRNA synthetase (GRS), 685 amino acids (human, UniProt P41250 55-739); assay: ELISA: plate coated with His-GRS or BSA, Fc-fused cadherin added, detected with anti-human IgG1 Fc-HRP; axis OD 490nm
# T1 construct: Expressed in E. coli; also called His-GRS; his-tagged GRS; not shown: His tag from vector pET-28a (EcoRI/XhoI)
# T1 sequence: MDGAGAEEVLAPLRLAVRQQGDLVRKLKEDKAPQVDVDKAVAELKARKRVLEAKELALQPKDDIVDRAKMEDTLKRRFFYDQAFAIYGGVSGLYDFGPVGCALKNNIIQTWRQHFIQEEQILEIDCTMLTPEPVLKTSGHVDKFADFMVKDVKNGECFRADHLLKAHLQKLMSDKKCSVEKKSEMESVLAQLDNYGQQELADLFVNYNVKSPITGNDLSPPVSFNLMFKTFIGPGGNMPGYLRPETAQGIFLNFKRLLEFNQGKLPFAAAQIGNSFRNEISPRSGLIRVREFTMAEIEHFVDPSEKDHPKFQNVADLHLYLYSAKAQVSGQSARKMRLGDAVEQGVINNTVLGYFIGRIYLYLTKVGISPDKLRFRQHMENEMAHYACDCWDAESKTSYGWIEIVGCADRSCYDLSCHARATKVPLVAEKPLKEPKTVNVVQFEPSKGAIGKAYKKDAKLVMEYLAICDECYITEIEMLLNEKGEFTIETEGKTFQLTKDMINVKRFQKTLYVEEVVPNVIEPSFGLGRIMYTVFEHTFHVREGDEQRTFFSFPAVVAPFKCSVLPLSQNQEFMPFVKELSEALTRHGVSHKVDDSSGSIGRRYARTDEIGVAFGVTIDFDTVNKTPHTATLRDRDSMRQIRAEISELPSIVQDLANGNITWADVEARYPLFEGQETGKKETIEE
# Description: (§1) (A) A panel of Fc-fused soluble cadherin family proteins was bound to His-tagged GRS or to BSA-coated plates, and complexes were detected with the IgG1 Fc-HRP (Thermo) reagent. (B) To confirm the binding between cadherins and GRS, Fc-CDH2, 6 and 18 were incubated with His-GRS. Fc-CDHs were precipitated with protein A/G agarose and co-precipitated GRS was determined by immunoblotting. (C) To calculate the equilibrium dissociation constant (IQ), immobilized Fc-fused (to gold chips) cadherins were incubated with GRS (31.25 nM˜1 uM). Binding of GRS to CDH6 was determined by surface plasmon resonance and expressed as resonance units (RU). (D) To confirm the binding between CDH6 and GRS domain peptides, Fc-CDH6 was incubated with different domains (F1, 2, 3 and 4) of GRS that were expressed as the GST fusion proteins. GST-GRS proteins were precipitated with GSH-sepharose beads and co-precipitated CDH6 was determined by immunoblotting. (E) Five difference cancers cells were determined for the expression of CDH6 by immunoblotting. (F) HCT116 cells were transfected with non-specific siRNA controls (si-con) or two differently designed siRNAs targeting CDH6 (#1 and #2), treated with biotinylated GRS (15 nM), and the binding of GRS was analyzed by immunoblotting. (G) HCT116 cells were transfected with si-con and si-CDH6 as described above, and cell binding of GRS was measured by FACS analysis. (H) HCT116 cells were incubated with His-GRS (150 nM). To neutralize the effects of GRS, Fc-fused CDH6 (300 nM) was added and the cell viability was determined by the MTT assay. Error bars represent standard deviation. (I) The binding between CDH6 and GRS domain peptides was again confirmed by ELISA assay.
# To identifying the receptor of GRS, a Maxisorp plate (Nunc, Rochester, N.Y.) was used for an ELISA detection. The plate were coated with purified his-tagged GRS (1 ug/ml) or BSA (1 ug/ml) in phosphate buffer saline and then blocked (PBS, 4% non-fat milk). Fc-fusion cadherin family proteins (1 ug/ml) were added to the plate and after washing with PBST (0.05% Tween20), the plates were incubated with anti-human IgG1 Fc-HRP (Thermo, Waltham, Mass.). […]
# [3] = biological target: T1, His-tagged recombinant human …; assay: SPR (ProteOn XPR36), Fc-cadherin amine-coupled to GLC chip, GRS as analyte, Langmuir 1:1 model
# Description: Binding of GRS to CDH6 was determined by surface plasmon resonance and expressed as resonance units (RU). (D) To confirm the binding between CDH6 and GRS domain peptides, Fc-CDH6 was incubated with different domains (F1, 2, 3 and 4) of GRS that were expressed as the GST fusion proteins. GST-GRS proteins were precipitated with GSH-sepharose beads and co-precipitated CDH6 was determined by immunoblotting. (E) Five difference cancers cells were determined for the expression of CDH6 by immunoblotting. (F) HCT116 cells were transfected with non-specific siRNA controls (si-con) or two differently designed siRNAs targeting CDH6 (#1 and #2), treated with biotinylated GRS (15 nM), and the binding of GRS was analyzed by immunoblotting. (G) HCT116 cells were transfected with si-con and si-CDH6 as described above, and cell binding of GRS was measured by FACS analysis. […] To neutralize the effects of GRS, Fc-fused CDH6 (300 nM) was added and the cell viability was determined by the MTT assay. […]
# Binding of GRS to the cadherin-Fc fusion proteins was determined by the SPR technique using a ProteOn XPR36 Protein Interaction Array System (BioRad). […] The binding was determined by the change in resonance units (RU), where one resonance unit is defined as 1 pg/mm². The Sensogram was processed by subtracting the binding response recorded from the control surface. […]
# [4] = biological target: B2; assay: GST pull-down with GSH-sepharose, immunoblot for CDH6
# Description: as §1, with “(H) HCT116 cells were incubated with His-GRS (150 nM). To neutralize the effects of GRS, Fc-fused CDH6 (300 nM) was added and the cell viability was determined by the MTT assay. Error bars represent standard deviation. (I) The binding between CDH6 and GRS domain peptides was again confirmed by ELISA assay.” left out
molecule,measurement,setting,value
"His-tagged recombinant human glycyl-tRNA synthetase (GRS), 685 amino acids (from UniProt P41250 55-739) (enzyme)",Kd,[1],1.25 nM
B1,binding result,[2],no binding (tested: 1 ug/ml (single concentration))
B2,Kd,[3],3.4 nM
B3,binding result,[4],binds

# — patent publication US20140220596A1 (MEDICINAL BIOCONVERGENCE RESEARCH CENTER, published 2014)
